Laboratory results: patent publication US20090215098A1, “QUANTIFICATION OF ENZYME ACTIVITY BY MASS SPECTROMETRY” (UCL BUSINESS PLC., priority 2006, published 2009)

Experiments:
[1] = test system: T1, PKC peptide substrate (SEQ ID NO: 12)
T1 sequence: QKRPSQRSKYL

[2] = test system: Protein Kinase C peptide substrate (SEQ ID NO: 23)
[3] = test system: T2, Akt peptide substrate (SEQ ID NO: 7)
T2 sequence: RPRAATF

[4] = test system: Akt; test: MS quantification of Akt activity in B lymphoma cell lysates treated with PI3K inhibitors; format: cell-based, mouse; settings: B lymphoma cell line WEHI-231; varying concentrations of inhibitor; FIG. 3A
Description: (§1) The activity of recombinant Akt/PKB was measured using the methods of the invention. Recombinant Akt/PKB was purchased from Upstate (Hampshire, UK). A 5.0 μL aliquot of […] (SEQ ID. NO: 7), 7.5 mM magnesium chloride, 0.15 mM EDTA, 7.5 mM β-glycerol phosphate, 0.1 mM sodium orthovanadate, and 0.1 mM DTT was mixed with 2.5 μL solution of Akt/PKB of various amounts: 0.004, 0.04, 0.2, 0.8, 4, 20, and 80 ng. The incubation time of each reaction was from between 2 minutes to 18 hours. Reactions were stopped with the addition of 7.5 μL of a 1% trifluoroacetic acid solution containing 1 pmol/μL internal standard (mass labeled SEQ ID NO: 39). Aliquots (0.5 μL out of a total of […]) from each reaction were analyzed by either MALDI-TOF MS (Ultraflex, Bruker) or LC-MS/MS (Ultimate HPLC, Dionex, connected to a Micromass/Waters Q-TOF instrument) using a nanoESI interface. Reaction products were analyzed by LC-MS/MS without further treatment. […]
(§2) Mouse WEHI-231 B lymphoma cell line was cultured as described in Cutillas et al., Mol Cell Proteomics 4:1038-51 (2005), incorporated herein in its entirety by reference. […] After centrifugation at 20,000×g, cell lysates were ready to use as enzyme sources. The enzyme activity of Akt in varying amounts of cell lysate (0.033, 0.067, 0.33, and 0.67 μg) was measured in the protocol outlined in example 2. […]

[5] = test system: T3, S6 Kinase/Rsk peptide substrate (SEQ ID NO: 5)
T3 sequence: RRRLSSLRA

[6] = test system: T4, MAP Kinase peptide substrate (SEQ ID NO: 10)
T4 sequence: APRTPGGRR

[7] = test system: Akt; test: Akt activity in B cell lysates in the presence of PI3K activators with or without inhibitor; format: cell-based, mouse; settings: PI3K activators (sodium pervanadate and anti-IgM) present; with vs without inhibitor; FIG. 3C
Description: as §1, §2

[8] = test system: Akt; test: MS quantification of activity of Akt immunoprecipitates from B lymphoma cells; format: cell-based, mouse; settings: addition of PI3K inhibitor, FIG. 3B
Description: as §1, §2

recombinant PKC
extracted mass chromatogram of enzymatic product (LC-MS), time points 0, 10, 30, 60 min [1]: a) corresponds to phosphorylation of SEQ ID NO: 12 by PKC | extracted mass chromatogram of enzymatic product (LC-MS), time points 0, 10, 30, 60 min [2]: d) corresponds to phosphorylation of SEQ ID NO: 23 by PKC

recombinant Akt/PKB
enzymatic activity (phosphorylated peptide product quantified by MALDI-TOF MS or LC-MS/MS) [3]: capable of detecting enzymatic activity down to the zeptommole range

Cc1ccccc1-n1c(Cn2cnc3c(N)ncnc32)nc2cccc(C)c2c1=O [IC87114]
Activity of the Akt enzyme in cell lysates [4]: decreased enzyme activity

recombinant S6 p70 kinase
extracted mass chromatogram of enzymatic product (LC-MS), time points 0, 10, 30, 60 min [5]: b) corresponds to phosphylation of SEQ ID NO: 5 by S6 p70 kinase

recombinant Erk
extracted mass chromatogram of enzymatic product (LC-MS), time points 0, 10, 30, 60 min [6]: c) corresponds to phosphorylation of SEQ ID NO: 10 by Erk

COC[C@H]1OC(=O)c2coc3c2[C@@]1(C)C1=C(C3=O)[C@@H]2CCC(=O)[C@@]2(C)C[C@H]1OC(C)=O [WM]
Activity of Akt in B cell lysates [7]: sensitive to the presence or absence of the inhibitor | Activity of the Akt enzyme in cell lysates [4]: decreased enzyme activity | Activity of Akt immunoprecipitates [8]: similarly affected
